Experimental data taken from the supplement of paper PMC9170038.

System: MS2 coat protein
Assay: apparent KD of MS2 coat protein; higher = weaker reporter binding
Conditions: Eterna round: R107
Summary of the method: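 For every design, apparent KD is the median of normalised binding-curve fits from its clusters. The RNA switches were transcribed on-chip from Illumina sequencing clusters and titrated with SNAP-549-labelled MS2 coat protein (twofold steps, 0.7 or 1.5 nM to 3 µM; 0.8–1.5 h to 10–20 min per step). Titrations used 100 mM Tris-HCl pH 7.5, 80 mM KCl, 4 mM MgCl2, without or with constant ligand.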

[1] = input ligand: theophylline 20 uM
[2] = input ligand: tryptophan 2.4 mM
[3] = input ligand: theophylline 2 mM

In the case of “AGCGACAUGCGUGAUACCAGCUACAUGAGGAUCACCCAUGUCAGCAGGAAACUGCUGUGUAGCCCUUGGCAGCACAGUGCAUGUC [Exclusion - Theophylline B (Freestyle 28)]”, the “apparent KD of MS2 coat protein” value (input ligand: arginine 13.2 mM) was 12.9 nM, the “apparent KD of MS2 coat protein” value [1] was 18.1 nM and the “apparent KD of MS2 coat protein” value [2] was 13.8 nM.

For “GAUAGUUGAUGGGAUACCAGCGUGCACAUGAGGAUCACCCAUGUGGUUCGUGUACGACGGCGCCCUUGGCAGCCCAUAUUGUGUA [#13 Same State - Theophylline B]”, the “apparent KD of MS2 coat protein” value (input ligand: arginine 13.2 mM) was 58.2 nM, the “apparent KD of MS2 coat protein” value [1] was 116 nM and the “apparent KD of MS2 coat protein” value [2] was 181 nM.

In the case of “GGACUAACCAGAAGGAGCGAUACGCAGAAACUGCAAUUUCCUCUACACGAGGAUCACCCGUGUCAGGUAGGUCGCUGGUUAGUCG”, the “apparent KD of MS2 coat protein” value (input ligand: arginine 13.2 mM) was 25.2 nM, the “apparent KD of MS2 coat protein” value (input ligand: none) was 26.9 nM and the “apparent KD of MS2 coat protein” value [1] was 35.2 nM. For the same sequence, the “apparent KD of MS2 coat protein” value [3] was 29.7 nM and the “apparent KD of MS2 coat protein” value [2] was 26.7 nM.

For “UCGCGAUAGAGAAGGAGCGUCAACACCACAGAACAUGAGGAUCACCCAUGUGUUACUUUUAGACAGGUAGGUCGCUCUAGCGCUU [JR_Nu_ExcArginiB_Sub028]”, the “apparent KD of MS2 coat protein” value (input ligand: arginine 13.2 mM) was 14 nM, the “apparent KD of MS2 coat protein” value (input ligand: none) was 12.2 nM and the “apparent KD of MS2 coat protein” value [1] was 18.3 nM. The “apparent KD of MS2 coat protein” value [3] was 16.4 nM and the “apparent KD of MS2 coat protein” value [2] was 13.3 nM.

In the case of “CUGGACAUGAGGAUCACCCAUGUAAAUCCUCGAGGACCGGUACGGCCGCCACUCGAACGAGUGGCGCGCGAGUGCGCACUCGCGC [aKa]”, the “apparent KD of MS2 coat protein” value (input ligand: arginine 13.2 mM) was 43.6 nM, the “apparent KD of MS2 coat protein” value (input ligand: none) was 41.4 nM and the “apparent KD of MS2 coat protein” value [1] was 66.9 nM. For the same sequence, the “apparent KD of MS2 coat protein” value [3] was 49.3 nM and the “apparent KD of MS2 coat protein” value [2] was 28.3 nM.

In the case of “ACGAUAGGACCUGAGGAACACCCAGGUGAUACCAGCCUGGAAACAGGCCCUUGGCAGCACCAAUACUCCAAUAACCUAUCGAAUA [TheoAX 12 #MicroSwitchBubble #AlternativeMS2]”, the “apparent KD of MS2 coat protein” value (input ligand: arginine 13.2 mM) was 141 nM, the “apparent KD of MS2 coat protein” value (input ligand: none) was 547 nM and the “apparent KD of MS2 coat protein” value [1] was 521 nM. For the same sequence, the “apparent KD of MS2 coat protein” value [3] was 366 nM and the “apparent KD of MS2 coat protein” value [2] was 518 nM.

For “AUACAUGAGGAUCACCCAUGUAUAGUCGAUACCAGCUCAAGGAAGAGCCCUUGGCAGCGACACUGGUAUCCAUGGGUGAUACCAG [(Ms2)-(Theo)-(T)'-(M)'-(T)''_Design4]”, the “apparent KD of MS2 coat protein” value (input ligand: arginine 13.2 mM) was 17.8 nM, the “apparent KD of MS2 coat protein” value [1] was 36.4 nM and the “apparent KD of MS2 coat protein” value [2] was 19.3 nM.

“UCGUGUGUUUCGGAUACCAGUGAAAUCGAUACAUGAGGAUCACCCAUGUGAGAGGAUGUACACCCUUGGCAGCUGUCUGUAUCUG [asczmullin]” was tested, and the “apparent KD of MS2 coat protein” value (input ligand: arginine 13.2 mM) was 14.7 nM, the “apparent KD of MS2 coat protein” value [1] was 16.8 nM and the “apparent KD of MS2 coat protein” value [2] was 12.1 nM.

In the case of “GCUACGUGCUGAAGGAGCGUGGACCUAAACAUGAGGAUCACCCAUGUCGUGUAGGCAGAUUCACAGGUAGGUCGCAGCACGUAGC [SSAB NP+V+V2 #14 Same Structure]”, the “apparent KD of MS2 coat protein” value (input ligand: arginine 13.2 mM) was 61.2 nM, the “apparent KD of MS2 coat protein” value (input ligand: none) was 92.2 nM and the “apparent KD of MS2 coat protein” value [1] was 123 nM. The “apparent KD of MS2 coat protein” value [3] was 120 nM and the “apparent KD of MS2 coat protein” value [2] was 99.7 nM.

With “GAGCUGAUGUAGAGAAUAAAUAUAAGAGAUACCAGUACAGAAAUGUACCCUUGGCAGCUCAACUUUACAUGAGGAUCACCCAUGU [Ex Theophylline A 18]” the “apparent KD of MS2 coat protein” value (input ligand: arginine 13.2 mM) was 14.1 nM, the “apparent KD of MS2 coat protein” value [1] was 16.7 nM and the “apparent KD of MS2 coat protein” value [2] was 13.9 nM.

With “CCUAUCCAGUCGGCCGCCACUGACCAUUUGGAACAGUGGGUGAAUACAUGAGGAUCACCCAUGUACAGGACCGGGACUGUAUAGG [Ex Tryptophan B 21]” the “apparent KD of MS2 coat protein” value (input ligand: arginine 13.2 mM) was 14.4 nM, the “apparent KD of MS2 coat protein” value (input ligand: none) was 11.2 nM and the “apparent KD of MS2 coat protein” value [1] was 13.1 nM. The “apparent KD of MS2 coat protein” value [3] was 10.4 nM and the “apparent KD of MS2 coat protein” value [2] was 27.9 nM.

In the case of “GCAUCCUAGUCGGCCGCCACUGGUACGAACACCUUCACCCGUGUGCACAUGAGGAUCACCCAUGUUAGGACCGGGACUAGGAUGC [SSTryp B #21]”, the “apparent KD of MS2 coat protein” value (input ligand: arginine 13.2 mM) was 10.3 nM, the “apparent KD of MS2 coat protein” value [1] was 11 nM and the “apparent KD of MS2 coat protein” value [3] was 8.45 nM.

For “GCCGCGGCCGGAAUAAACAUGGGUAAAUAACGAGGACCGGUACGGCCGCCACUCGAGAUAAAUAACAUGAGGAUCACCCAUGUAC [Exclusion Tryp A GF11]”, the “apparent KD of MS2 coat protein” value (input ligand: arginine 13.2 mM) was 43 nM, the “apparent KD of MS2 coat protein” value [1] was 111 nM and the “apparent KD of MS2 coat protein” value [3] was 123 nM.

With “CGCACAUGAGGAUCACCCAUGUGAGGGCGGCGAGGACCGGUACGGCCGCCACUCGCAGGACAUGAGGAUCACCCAUGUGCCGCCG [SSTA DOUBLE!!! :-D]” the “apparent KD of MS2 coat protein” value (input ligand: arginine 13.2 mM) was 32.5 nM, the “apparent KD of MS2 coat protein” value (input ligand: none) was 548 nM and the “apparent KD of MS2 coat protein” value [1] was 397 nM. The “apparent KD of MS2 coat protein” value [3] was 501 nM and the “apparent KD of MS2 coat protein” value [2] was 351 nM.

With “AAACAUUGCUCAGAUACCAGACAUGAGGAUCACCCAUGUACCGAGGUACCCGAAAGGAAUGUCCCUUGGCAGCUGAGCAAUGAAA [MAT - Exclusion Theophlline B - Mod of Eli - D22]” the “apparent KD of MS2 coat protein” value (input ligand: arginine 13.2 mM) was 14.2 nM, the “apparent KD of MS2 coat protein” value [1] was 15.3 nM and the “apparent KD of MS2 coat protein” value [2] was 11.4 nM.

“UACAUGAGGAUCACCCAUGUGUAGAGGGAUACCAGUGACAGUAAGCGCCCUUGGCAGCCCGUGAACAAUGGGUGAGCUAAAUAGU [#18 Exclusion-TheophyllineA]” was tested, and the “apparent KD of MS2 coat protein” value (input ligand: arginine 13.2 mM) was 28.7 nM, the “apparent KD of MS2 coat protein” value (input ligand: none) was 37.9 nM and the “apparent KD of MS2 coat protein” value [1] was 75.5 nM. The “apparent KD of MS2 coat protein” value [3] was 133 nM and the “apparent KD of MS2 coat protein” value [2] was 57.4 nM.
